The results in this text go back to publication doi:10.1101/2022.04.11.487660 (bioRxiv, 2022).

The target of the test is lysozyme (UniProt P00698). Put plainly: ELISA. (An ELISA detects its analyte on a solid surface through an enzyme-linked reagent.)

B1: camel nanobody 1ZVH, displayed on phage (VHH)
VHH: DVQLVESGGGSVQAGGSLRLSCAASGYIASINYLGWFRQAPGKEREGVAAVSPAGGTPYYADSVKGRFTVSLDNAENTVYLQMNSLKPEDTALYYCAAARQGWYIPLNSYGYNYWGQGTQVTVSS
Consider B1, for which the binding result was “binds”.
